The results in this text go back to PMC3813734, “Biochemical Characterization of a First Fungal Esterase from Rhizomucor miehei Showing High Efficiency of Ester Synthesis” (PLoS ONE, 2013).

The term Km denotes the concentration of substrate that gives half-maximal velocity. As usually defined, the kcat/Km is the turnover number divided by the Michaelis constant.

What all share (experiment): purified protein
What all share (assay type): biochemical, Rhizomucor miehei
Common to all, as to conditions: 50 mM sodium phosphate pH 6.5, 45 °C, 5 min

Substrate in data set [1]: CC(=O)Oc1ccc([N+](=O)[O-])cc1
Substrate in data set [2]: CCCC(=O)Oc1ccc([N+](=O)[O-])cc1
Substrate in data set [3]: CCCCCC(=O)Oc1ccc([N+](=O)[O-])cc1
Substrate in data set [4]: CCCCCCCC(=O)Oc1ccc([N+](=O)[O-])cc1
Substrate in data set [5]: CCCCCCCCCC(=O)Oc1ccc([N+](=O)[O-])cc1
Substrate in data set [6]: CCCCCCCCCCCC(=O)Oc1ccc([N+](=O)[O-])cc1

B1: RmEstA (Rhizomucor miehei) (protein)
chain: MTVGNPPIHPVYAAAFAAMKERPPIHTLDLKVVRESSEARQLAANIKLPEVIEEDKVVESDGKTLKLTIVRPPGTEDQILPVLIFLHGGGFVFGSKYTHIKPVRDLTVKANVVTVFVDYSLSPEAKFPTAIEEIYAAILWVRENASSLNINAEALAVAGDSAGATLSAAVSIYAKEKGLSAAIKTQVLIYPATAVSHAKYESYKLFGNGDYILSAEDLKFFSNAYLPAPASELNDKLATLELATKADLEGLPPALLFTAESDVLRDEGEKYAQQLAEAGVDVAAVRVLGAVHGFITVPVETPQYRFTINTIVAHLRDIYAKYNA
notes: full-length ORF, 324 residues, no signal peptide predicted; C-terminal His tag (pET-30a(+), NdeI/XhoI); E. coli BL21(DE3); Ni-IDA; 34,989 Da calculated, 34 kDa SDS-PAGE
As for B1, the Km in the data set “purified protein [1]” is 1000 µM; in “purified protein [2]”, 170 µM; in the data set “purified protein [3]”, 120 µM; in the data set “purified protein [4]” it was 820 µM; in the data set “purified protein [5]” it was 280 µM; in the data set “purified protein [6]” it was 300 µM. The kcat/Km in “purified protein [1]” is 370 M⁻¹ s⁻¹; in the data set “purified protein [2]” it was 6900 M⁻¹ s⁻¹; in “purified protein [3]”, 8970 M⁻¹ s⁻¹; in “purified protein [4]”, 510 M⁻¹ s⁻¹; in “purified protein [5]” it was 130 M⁻¹ s⁻¹; in “purified protein [6]” it was 60 M⁻¹ s⁻¹.
